Data taken from IntAct's records for PubMed 22321644.

B1: Staphylokinase (Staphylococcus aureus (strain N315)), Q99SU7 (parent)
chain: MLKRSLLFLTVLLLLFSFSSITNEVSASSSFDKGKYKKGDDASYFEPTGPYLMVNVTGVDSKGNELLSPHYVEFPIKPGTTLTKEKIEYYVEWALDATAYKEFRVVELDPSAKIEVTYYDKNKKKEETKSFPITEKGFVVPDLSEHIKNPGFNLITKVVIEKK

Variants of: B1
Settings: with plmn_human PLG
V72F was tested, and the “effect of a mutation on the interaction” value was “decreasing interaction”.
In the case of Y71F, the “effect of a mutation on the interaction” value is reported as “decreasing interaction”.

Variants of: B1
Settings: with plmn_human PLG
Remark: another data set of the same source
With V72Y the “effect of a mutation on the interaction” value was “decreasing interaction”.

Variants of: B1
Settings: with plmn_human PLG
Remark: another data set of the same source
For V72A, the “effect of a mutation on the interaction” value was “disrupting interaction”.

Variants of: B1
Settings: with plmn_human PLG
Remark: another data set of the same source
For V72A, the “effect of a mutation on the interaction” value was “decreasing interaction”.

Variants of: B1
Settings: with plmn_human PLG
Remark: another data set of the same source
For P69L, the “effect of a mutation on the interaction” value was “disrupting interaction”.

Variants of: B1
Settings: with plmn_human PLG
Remark: another data set of the same source
For P69L, the “effect of a mutation on the interaction” value was “decreasing interaction”.
